Changes are numbered by the printed parent chain.
Key:
[1] = target: T1, human IL1RAP extracellular domain protein (GK002, HuIL1Racp-ECD-His6) (human, UniProt Q9NPH3 21-367); assay: SPR (Biacore T200), mAb captured by anti-Fc IgG, His-tagged human IL1RAP ECD as analyte
T1 construct: also called His-tagged human IL-1RAP extracellular domain protein; HuIL1RAP-ECD-His6 (GK002)
T1 sequence: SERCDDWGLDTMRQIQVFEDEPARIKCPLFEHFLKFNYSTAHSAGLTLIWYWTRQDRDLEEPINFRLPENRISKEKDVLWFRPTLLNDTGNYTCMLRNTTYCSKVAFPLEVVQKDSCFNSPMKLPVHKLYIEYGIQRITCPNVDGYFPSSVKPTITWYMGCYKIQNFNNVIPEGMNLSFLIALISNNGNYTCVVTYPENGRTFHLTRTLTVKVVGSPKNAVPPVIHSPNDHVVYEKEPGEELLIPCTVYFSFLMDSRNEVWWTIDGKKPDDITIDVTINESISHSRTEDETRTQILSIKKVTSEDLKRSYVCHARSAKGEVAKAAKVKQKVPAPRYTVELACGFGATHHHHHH
Method: The binding kinetics and affinities of murine anti-human IL1RAP mAbs for human IL1RAP protein were determined by surface plasmon resonance technology using the Biocore T200 platform. An anti-Fc IgG antibody was immobilized on the surface of a Biacore chip and used to capture the test antibody at a flow rate of 30 µL/min. Serial dilutions of His-tagged human IL-1RAP extracellular domain protein were then flowed over the chip, with a 3-minute association phase, followed by a 20-60 minute dissociation phase. In between cycles, the Biacore chip was regenerated for 120 seconds by flowing Glycine pH 1.5 over the chip at a flow rate of 10 µL/min. Association (ka) and dissociation (kd) constants were determined, as were binding affinities (KD), with the multiple cycle kinetics algorithm.

[2] = target: T2, human IL1RAP on the cell surface (HEK293/IL1RAP cells; IL1RAP-expressing OCI-AML-1 cells) (human, UniProt Q9NPH3 21-570); assay: cell-based or functional assay
T2 sequence: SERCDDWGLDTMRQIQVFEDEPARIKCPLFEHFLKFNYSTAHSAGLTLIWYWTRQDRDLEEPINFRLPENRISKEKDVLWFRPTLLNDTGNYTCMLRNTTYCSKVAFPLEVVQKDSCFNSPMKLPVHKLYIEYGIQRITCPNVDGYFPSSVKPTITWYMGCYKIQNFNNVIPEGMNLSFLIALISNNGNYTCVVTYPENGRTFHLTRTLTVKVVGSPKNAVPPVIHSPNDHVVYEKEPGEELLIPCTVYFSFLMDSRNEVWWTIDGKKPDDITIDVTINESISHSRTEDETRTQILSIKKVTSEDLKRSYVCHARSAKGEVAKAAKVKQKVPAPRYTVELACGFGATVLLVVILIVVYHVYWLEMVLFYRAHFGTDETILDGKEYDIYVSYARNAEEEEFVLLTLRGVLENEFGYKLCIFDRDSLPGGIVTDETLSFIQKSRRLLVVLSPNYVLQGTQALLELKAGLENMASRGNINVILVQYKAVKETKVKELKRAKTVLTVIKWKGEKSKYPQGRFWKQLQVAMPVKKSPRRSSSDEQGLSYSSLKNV

[3] = target: T2, human IL1RAP on the cell surface …; assay: cell-based or functional assay; remark: listed apart in the source
[4] = target: T3, Soluble Human IL1RAP (sIL1RAP) (human, UniProt Q9NPH3 21-367); assay: SPR, antibody captured via Protein A on CM5 chip, 25° C., 1:1 fit, average of 3 runs
Method: (§1) Human and cyno IL1RAP ECD, and human soluble IL1RAP, were then flowed over the captured antibody to replicate non-avid target binding. Data were analyzed using a 1:1 kinetic fit model.

Cyno IL1RAP ECD [5] = target: T4, Cyno IL1RAP ECD (cynomolgus monkey, UniProt A0A2K5X5J5 21-367); assay: as above
T4 construct: extracellular domain; Analyte in the GSK3903371A SPR study; also called cynomolgus monkey IL1RAP ECD
T4 sequence: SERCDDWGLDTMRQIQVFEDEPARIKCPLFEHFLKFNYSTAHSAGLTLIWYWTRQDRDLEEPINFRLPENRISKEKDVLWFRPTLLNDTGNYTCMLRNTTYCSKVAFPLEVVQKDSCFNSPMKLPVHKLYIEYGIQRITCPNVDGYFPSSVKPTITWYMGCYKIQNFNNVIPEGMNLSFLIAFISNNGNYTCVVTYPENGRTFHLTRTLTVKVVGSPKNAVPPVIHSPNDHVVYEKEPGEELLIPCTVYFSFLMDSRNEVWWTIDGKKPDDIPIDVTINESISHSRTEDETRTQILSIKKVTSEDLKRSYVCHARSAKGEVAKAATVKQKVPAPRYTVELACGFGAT
Method: as §1

Human IL1RAP ECD [6] = target: T5, Human IL1RAP ECD (human, UniProt Q9NPH3 21-367); assay: as above
T5 construct: Analyte in the GSK3903371A SPR study; also called human IL1RAP extracellular domain (ECD); recombinant human IL1RAP ECD
T5 sequence: T4 sequence with F183L, P273T, T326K
Method: as §1

[7] = target: T3, Soluble Human IL1RAP (sIL1RAP); assay: SPR, antibody captured via Protein A on CM5 chip, 37° C., 1:1 fit, average of 2 runs
Method: as §1

Cyno IL1RAP ECD [8] = target: T4, Cyno IL1RAP ECD; assay: as above
Method: as §1

Human IL1RAP ECD [9] = target: T5, Human IL1RAP ECD; assay: as above
Method: as §1

cyno IL1RAP (GK017, …) = target: T6, cyno IL1RAP (GK017, CynoIL1Racp-ECD-His6) (cyno, UniProt A0A2K5X5J5 21-367); assay: SPR (Biacore T200), mAb captured by anti-human IgG Fc on CM5, ECD-His6 as analyte, 1:1 fit
T6 construct: extracellular domain; also called CynoIL1RAP-ECD-His6 (GK017); cyno IL1RAP-ECD-His6 protein
T6 sequence: T1 sequence with L183F, T273P, K326T
Method: (§2) Serial dilutions of recombinant human IL1RAP-ECD-His6 protein (GK002) or cyno IL1RAP-ECD-His6 protein (GK017) were flowed over the captured humanized mAb, and the KD was determined using Biacore T200 evaluation software v1.0.
(§3) Flow cell 1 was used as reference flow cell and no antibody was injected into flow cell 1. Test antibodies were captured onto one of the flow cells 2, 3 and 4 at a flow rate of 10 µL/min. Diluted GK002 or GK017 was then injected over the 4 flow cells for 180 s at 30 µL/min flow rate to collect data for association. Buffer flow was maintained for 1200 s at 30 µL/min flow rate for dissociation measurement. At the end of the dissociation measurement, the tested antibody and antigen were removed from the surface by 10 mM glycine-HCl pH 1.5 injection for 60 seconds at a flow rate of 10 µL/min. The above steps were repeated for each concentration of serially-diluted His-tagged IL1RAP ECD protein. The KD value for each antibody was evaluated using Biacore T200 evaluation software 1.0, and the data was fit with a 1:1 binding model.

[10] = target: T1, human IL1RAP extracellular domain …; assay: as above
Method: as §2, §3

B1: murine mAb117 (antibody, V domains shown)
VH: QAYLQQSGAELVRPGASVKMSCKASGYTFTSYNMHWVKQSPRQGLEWVGVFYLGNGDTSYNEKFKGKATLTVDKSSSTAYMQLSSLTSEDSAVYFCARPGGYANWYFDVWGTGTTVTVSS
VL: DIVMTQSQKFMSTSVGDWVSVTCKASQNVGTEVSWYQQKPGQSPNTLIYSASYRHSGVPDRFTGSGSGTEFTLTITNVQSEDLADYFCQQYNSFPLTFGAGTKLDLK
notes: Murine anti-human IL1RAP mAb
- Kd [1]: 0.193 nM
- koff [1]: 4.28e-05 s⁻¹
- kon [1]: 222000 M⁻¹ s⁻¹

B2: murine mAb048 (antibody, V domains shown)
VH: QVQLQQPGADLVKPGASVKLSCKAYGYTFFSYWMHWVRQRPGQGLEWIGMIHPNSGTTNNNEKFKSKATLTVDKSFSTAYMQLSSLTSEDSAVYYCARGYSNYDFDYWGQGTILTVSS
VL: DIKMTQFPSSMYASLGERVTITCKASQDINTYLIWIQQKPGKSPKTLIYRANRLADGVPSRFSGSGSGQDSSLTISSLEHEDMGIYYCLQYDEFPYTFGGGTKLEIK
notes: Murine anti-human IL1RAP mAb
- Kd [1]: 0.357 nM
- koff [1]: 4.48e-05 s⁻¹
- kon [1]: 125000 M⁻¹ s⁻¹

B3: murine mAb067 (antibody, V domains shown)
VH: QVKLHQSGAELAKPGASVKMSCKASGYTFNSYWIHWVKQRPGQGLEWIGYNNPTSGYSEYNQKFTDKATLSADKSSSTAYMQLSSLTSEDSAVYYCVREYGDLFAYWGQGTLVTVSA
VL: NIVMTQSPKSMSMSVGERVTLSCKASENVGYSVSWFQQKPDQSPKLLIYGASNRYTGVPDRFTGSGSATDFTLTISTVQAEDLADYHCGQIYIYPYTFGGGTKLEIK
notes: Murine anti-human IL1RAP mAb
- Kd [1]: 0.3 nM
- koff [1]: 0.000102 s⁻¹
- kon [1]: 340000 M⁻¹ s⁻¹

B4: mAb063 (antibody, V domains shown)
VH: EVQLQQSGPELVKPGASVKISCKASGYTFTDYYMNWVKQSHGKSLEWIGHINPNSGSTTYTEKFKDKATLTVDKSSSTAYMELRSLTSDDSAVYYCVRRIGKNWHCDVWGTGTTVTVSS
VL: DIVLTQSPASLAVSLGQRATISCRASESVNFHGTHLMHWYQQKPGQAPKLLIYAASNLDSGVPARFSGSGSETDFTLNIHPVEEEDAATYFCQQSIEDPFTFGSGTYLEIK
notes: Murine anti-human IL1RAP mAb; also called murine mAb063
- Kd [1]: 0.0496 nM
- koff [1]: 2.12e-05 s⁻¹
- kon [1]: 426000 M⁻¹ s⁻¹

B5: GSK3903371A (antibody, human IgG1, kappa, V domains shown)
VH: EVQLVQSGAEVKKPGSSVKVSCKASGYTFNSYWIHWVRQAPGQGLEWMGYNNPTSGYSEYNQKFTDRVTITADKSTSTAYMELSSLRSEDTAVYYCAREYGDLFAYWGQGTLVTVSS
VL: AIQMTQSPSSLSASVGDRVTITCKASENVGYSVSWFQQKPGKSPKLLIYGASNRYTGVPSRFSGSGSATDFTLTISSLQPEDFATYHCGQIYIYPYTFGGGTKVEIKR
modifications: heavy chain constant region afucosylated (expressed in FUT8-knockout POTELLIGENT CHO cells)
notes: Humanized IgG1 kappa; also called afucosylated anti-IL1RAP mAb GSK3903371A
- ADCC EC50, PBMC effector cells, OCI-AML-1 target cells, experiment 1 [2]: 0.0633 nM
- ADCC EC50, PBMC effector cells, OCI-AML-1 target cells, experiment 2 [2]: 0.0589 nM
- ADCC EC50, PBMC effector cells, OCI-AML-1 target cells, experiment 3 [2]: 0.0705 nM
- ADCC EC50, geometric mean (n=3), OCI-AML-1 target cells [2]: 0.0641 nM
- CDC EC50, HEK293/IL1RAP target cells, experiment 1 [3]: 6.16 nM
- CDC EC50, HEK293/IL1RAP target cells, experiment 2 [3]: 5.9 nM
- Kd [4]: 2.03 nM
- koff [4]: 0.000199 s⁻¹
- Kd (Cyno IL1RAP ECD [5]): 1.53 nM
- koff (Cyno IL1RAP ECD [5]): 0.000226 s⁻¹
- Kd (Human IL1RAP ECD [6]): 1.61 nM
- koff (Human IL1RAP ECD [6]): 0.000268 s⁻¹
- Kd [7]: 3.58 nM
- koff [7]: 0.00101 s⁻¹
- Kd (Cyno IL1RAP ECD [8]): 3.47 nM
- koff (Cyno IL1RAP ECD [8]): 0.000946 s⁻¹
- Kd (Human IL1RAP ECD [9]): 2.54 nM
- koff (Human IL1RAP ECD [9]): 0.000942 s⁻¹

B6: mAb067-12 (humanized) (antibody, human IgG1, kappa, V domains shown)
VH: B5 VH
VL: B5 VL
notes: Fucosylated humanized IgG1; same chains as GSK3903371A; also called HumAb67-12; HumAb067-12
- CDC EC50, HEK293/IL1RAP target cells, experiment 1 [3]: 5.13 nM
- CDC EC50, HEK293/IL1RAP target cells, experiment 2 [3]: 4.7 nM
- Kd (cyno IL1RAP (GK017, …)): 0.899 nM
- koff (cyno IL1RAP (GK017, …)): 0.00015 s⁻¹
- kon (cyno IL1RAP (GK017, …)): 167000 M⁻¹ s⁻¹
- Kd [10]: 0.953 nM
- koff [10]: 0.000161 s⁻¹
- kon [10]: 169000 M⁻¹ s⁻¹

B7: murine mAb001 (antibody, V domains shown)
VH: QVQLQQPGAELVRPGSSVKLSCKASGYTFTSYWMDWVKQRPGQGLEWIGNIYPSDSKTHYNQKFKDKATLTVDKSSSTAYMQLSSLTSEDSAVYYCARDYYGSIGMDYWGQGTSVTVSS
VL: DIQMTQSPSSLSASLGERVSLTCRASQEISGYLSWLQQKPDGTIKRLIYAASTLDSGVPKRFSGSRSGSDYSLTISSLESEDFADYYCLQYASYPWTFGGGTKLEIK
notes: Murine anti-human IL1RAP mAb
- Kd [1]: 4.97 nM
- koff [1]: 0.000282 s⁻¹
- kon [1]: 56700 M⁻¹ s⁻¹
